The values below come from US8530235B2, “Medium that supports culture of an oocyte and modulation of granulosa cell apoptosis” (Adelaide Research & Innovation Pty Ltd., priority 2005, dated 2013).

One experiment relates to cumulus cells. Kind of experiment: Staurosporine-induced cumulus cell apoptosis in OOX (TUNEL). The format is cell-based, Bovine. As to conditions: 10% BMP-15 or 10 ng/ml BMP-6. Here is the method:
CC apoptoic DNA was detected using TUNEl (Roche Diagnostic, Penzberg, Germany) according to the manufacturer's instructions. […] Complexes were then permeabilized in 0.11/u Triton X-100 in 0.1% sodium citrate for 1 hour at room temperature and washed 3 times in PBS/BSA. The complexes were then incubated in fluorescein-conjugated dUTP and terminal deoxynucleotide transferase (TUNEl reagents, Roche) for 1 hour at 37° C. in the dark. Positive controls were incubated in DNAse 1 (0.005 U/µl), which cleaves all DNA, for 20 minutes at room temperature and washed twice in PBS/BSA before TUNEl. Negative controls were incubated in fluorescein-dUTP in the absence of TdT. After TUNEl, complexes were washed twice in PBS/BSA and counterstained with propidium iodide 0.5 μg/ml (PI) plus RNase A (0.1 mg/ml) for 1 hour at room temperature in the dark to label all nuclei. Complexes were then washed twice in PBS/BSA and mounted with slight coverslip compression in VectaShield anti-bleaching solution (Vector labs, Burlingame, Calif.), and stored in the dark at 4° C. for confocal analysis. […] These optical section images were acquired and saved as independent colour channels (green, apoptotic cumulus fluorescence and red, nuclear cumulus fluorescence). The captured images were then processed in Scanalytics IPlab software Version 3.6. (Scanalytics, Fairfax, Va.). Quantification of CC number (for each colour channel) was independently measured using a macro script utilizing an auto segmentation filter for each optical section percentile (3 optical “z”-plane sections for each complex). A percentage of apoptotic nuclei were generated for each slice and the three percentile values were then averaged to achieve a representation of the total apoptotic nuclei percentage for the whole complex. These processes were repeated separately on each individual complex. A preliminary experiment was conducted to determine the apoptotic effect of staurosporine on bovine CC, which induced apoptosis in a dose-dependent manner (range; 0.1-100 μM, data not shown). The aim of this experiment was to determine whether OSF could prevent CC from undergoing apoptosis induced by staurosporine. OOX alone or co-cultured with 35 DO, 10 ng/ml BMP-6 or 10% (v/v) BMP-15, and were then exposed to either 0.1 μM or 1.0 μM staurospourine for the last 6 hours of the 24 hour incubation period. Three replicates of this experiment were carried out using 10 OOX per treatment group per replicate experiment.

Experiment [1] concerns Smad 1-responsive BRE-luciferase reporter. Kind of experiment: Smad 1-responsive BRE-luciferase reporter in mural granulosa cells from large antral follicles. To be noted: 48 h; 0.5 ng/ml TGFβ1, 88-265 ng/ml GDF9, 50 ng/ml BMP7 or 60 mouse oocytes. The format is cell-based, marmoset monkey, Callithrix jacchus. Here is the method: FIGS. 18A and 18B show the activation of the TGF-β signalling pathway by GDF9 and oocytes. MGC from large follicles were transiently transfected with either a Smad 3-responsive CAGA-luciferase reporter construct (A) or a Smad 1-responsive BRE-luciferase reporter construct (B). Cells were subsequently left untreated, treated with 0.5 ng/ml TGFβ1, 88-265 ng/ml GDF9, 50 ng/ml BMP7 or co-cultured with 60 mouse oocytes. Cells were cultured for 48 h after which time luciferase activity was measured from cell extracts. Bars represent means+/− SEM from 3 replicate experiments expressed as a fold change relative to control.
Luciferase reporter constructs responsive to specific phosphorylated Smads were used to detect the activation of mural GC Smad proteins by recombinant GDF9 Mural GCs were collected and processed as described above, except cells were given a final wash in DMEM(MP Biomedicals, Seven Hills, Australia)+2% FCS (Trace Biosciences, Castle Hill, Australia). Following the final wash, cells were transferred to individual wells of a 96-well plate (Falcon) and cultured at 1.6×10^5 cells/ml. After 4 hours of culture, cells were transiently transfected with 50 ng of luciferase reporter construct DNA using Fugene 6 (Roche Diagnostics, Castle Hill, Australia). 18 hours after transfection, medium was aspirated from cells and replaced with DMEM supplemented with 0.1% FCS. Various ligands were added to cells at this point (see below) and the culture period extended for a further 48 hours. Experiments were terminated by removing media from wells and freezing plates at −20° C. […]
Seven adult female marmosets were primed with […] for 6 days, whole ovaries were removed on day 7, follicles manually excised, and GC were then collected from 3 size classes: periantral (PA; 0.42-0.66 mm), small antral (SA; 0.66-1.5 mm) and large antral (LA; >1.5 mm). […] In order to determine the effects of GDF9 on marmoset GC proliferation, we employed a GC bioassay whereby after 24 h ^3H-thymidine incorporation is assessed as an indicator of DNA synthesis and cellular proliferation. […]
On the technique in general: A reporter such as luciferase makes a cellular process visible.

The subject of another experiment is mural granulosa cells. The experiment can be described thus: Mural granulosa cell DNA synthesis, 3H-thymidine incorporation. The format is cell-based, marmoset monkey, Callithrix jacchus. As to conditions: peri antral, small antral and large antral follicles; most notably small follicles, synergism with IGF1. Here is the method: Mural GC from large antral follicles were cultured for 24h and thymidine incorporation was stimulated with 175 ng/ml GDF9. […] Bars/points represent means+/−SEM from 3 replicate experiments expressed as a fold change relative to control.
Follicles were manually excised and separated into 3 size classes: periantral (PA; 0.42-0.66 mm), small antral (SA; 0.66-1.5 mm) and large antral (LA; >1.5 mm). GCs from each follicle size were collected and pooled, then washed twice in bicarbonate-buffered tissue culture medium-199 (B-TCM) supplemented with 0.3 mg/ml of polyvinyl alcohol (PVA, Sigma). Depending on the individual experiments, mural GCs (1×10^5 cells/ml), hormones, inhibitors and media were added to wells of 96-well plates (Falcon) to give a final volume of 125 μl. Within each experiment, all treatments were carried out in at least duplicate wells and each experiment was replicated on at least 3 occasions. Cells were cultured in an atmosphere of 37° C., 96% humidity in 5% CO2 in air for 18 hours, followed by a further 6 hour pulse of 15.4 kBq tritiated thymidine (3H-thymidine, ICN) under the same conditions.
Seven adult female marmosets were primed with […] for 6 days, whole ovaries were removed on day 7, follicles manually excised, and GC were then collected from 3 size classes: periantral (PA; 0.42-0.66 mm), small antral (SA; 0.66-1.5 mm) and large antral (LA; >1.5 mm). Four different approaches were utilized to examine GDF9 function in GC. […] To examine the GDF9 signalling pathway, cultured GC from LA follicles were transfected with either a CAGA-luciferase or BRE-luciferase reporter construct and treated with various TGF-β superfamily growth factors or co-cultured with mouse oocytes. In order to determine the effects of GDF9 on marmoset GC proliferation, we employed a GC bioassay whereby after 24 h ^3H-thymidine incorporation is assessed as an indicator of DNA synthesis and cellular proliferation. […] In another experiment, GC were treated with an increasing dose of SB431542, an activin-like kinase (ALK) 4/5/7 inhibitor, in the presence of GDF9+/−IGF1.

A short description of experiment [2]: Study V: pregnancy outcome after transfer of blastocysts to pseudo-pregnant females. The format is in vivo, mice. As to conditions: oocytes matured with 200 ng/ml GDF9, Day 15 of pregnancy. Here is the method: Oocytes (n=1106) were then fertilised and cultured to the blastocyst stage in G1.2/G2.2 medium at 37° C. in 6% CO2 5% O2. Blastocysts were pooled and either transferred to pseudo-pregnant Swiss females or differentially stained. Pregnancy outcome was assessed on Day 15 of pregnancy.

B1: BMP-15: Recombinant ovine BMP-15 produced in-house in transfected 293H cells, partially purified by hydrophobic interaction chromatography; dosed as % v/v (protein, UniProt Q9MZE2 269-393, looked up)
Bone morphogenetic protein 15: QAGSIASEVPGPSREHDGPESNQCSLHPFQVSFQQLGWDHWIIAPHLYTPNYCKGVCPRVLHYGLNSPNHAIIQNLVSELVDQNVPQPSCVPYKYVPISILLIEANGSILYKEYEGMIAQSCTCR
Regarding B1, the “CC apoptosis of treated OOX exposed to staurosporine” value is recorded as 17% in the experiment on cumulus cells (0.1 μM staurosporine) and 25% with cumulus cells (1 μM staurosporine).

B2: GDF-9: Recombinant mouse GDF-9 produced in-house in transfected 293H cells, partially purified by HIC (protein, UniProt Q07105 307-441, looked up)
Growth/differentiation factor …: GQKAIRSEAKGPLLTASFNLSEYFKQFLFPQNECELHDFRLSFSQLKWDNWIVAPHRYNPRYCKGDCPRAVRHRYGSPVHTMVQNIIYEKLDPSVPRPSCVPGKYSPLSVLTIEPDGSIAYKEYEDMIATRCTCR
Consider B2, for which the “BRE-luciferase activity compared to control levels” value in experiment [1] is given as “not activated”. Further, the “GC DNA synthesis” value in the experiment with mural granulosa cells is listed as “stimulates GC DNA synthesis in all follicle sizes”. For the same molecule, the fetal development in experiment [2] (vs 21%, P=0.04) came out at 39%. Moreover, the implantation in experiment [2] (vs 77%, not affected) is 83%.
